# According to US20150374794A1 (Novo Nordisk, published 2015):
# Numbered stars: 1 amine (or outer) side, 2 acyl side, 3 side chain; on linkers, the order of the positions; unused ones are H or OH. Square brackets hold non-standard residues; d marks the D form. Side chains are listed from the residue outwards. Ends that are not written are not given here. * marks the point of attachment. C18 diacid = O=C(O)CCCCCCCCCCCCCCCCC(=O)*; γGlu = O=C(O)[C@H](CCC(=O)[*:2])N[*:1]; AEEA = NCCOCCOCC(=O)O; Aib = CC(C)(N)C(=O)O
# B1: N^ε29-[(4S)-4-carboxy-4-[[(4S)-4-carboxy-4-[[2-[2-[2-[[2-[2-[2-[[(4S)-4-carboxy-4-(17-carboxyheptadecanoylamino)butanoyl]amino]ethoxy]ethoxy]acetyl]amino]ethoxy … (peptide)
# peptide: H[Aib]QGTFTSDLSKYLDTRRAKDFVQWLLSK([γGlu-γGlu-AEEA-AEEA-γGlu-C18 diacid])-NH2
# modifications: N-terminus assumed
# SMILES: CC(C)C[C@H](NC(=O)[C@H](CC(C)C)NC(=O)[C@H](Cc1c[nH]c2ccccc12)NC(=O)[C@H](CCC(N)=O)NC(=O)[C@@H](NC(=O)[C@H](Cc1ccccc1)NC(=O)[C@H](CC(=O)O)NC(=O)[C@H](CCCCN)NC(=O)[C@H](C)NC(=O)[C@H](CCCNC(=N)N)NC(=O)[C@H](CCCNC(=N)N)NC(=O)[C@@H](NC(=O)[C@H](CC(=O)O)NC(=O)[C@H](CC(C)C)NC(=O)[C@H](Cc1ccc(O)cc1)NC(=O)[C@H](CCCCN)NC(=O)[C@H](CO)NC(=O)[C@H](CC(C)C)NC(=O)[C@H](CC(=O)O)NC(=O)[C@H](CO)NC(=O)[C@@H](NC(=O)[C@H](Cc1ccccc1)NC(=O)[C@@H](NC(=O)CNC(=O)[C@H](CCC(N)=O)NC(=O)C(C)(C)NC(=O)[C@@H](N)Cc1c[nH]cn1)[C@@H](C)O)[C@@H](C)O)[C@@H](C)O)C(C)C)C(=O)N[C@@H](CO)C(=O)N[C@@H](CCCCNC(=O)CC[C@H](NC(=O)CC[C@H](NC(=O)COCCOCCNC(=O)COCCOCCNC(=O)CC[C@H](NC(=O)CCCCCCCCCCCCCCCCC(=O)O)C(=O)O)C(=O)O)C(=O)O)C(N)=O
# B2: N^ε16-[(4S)-4-carboxy-4-[[(4S)-4-carboxy-4-[[2-[2-[2-[[2-[2-[2-[[(4S)-4-carboxy-4-(17-carboxyheptadecanoylamino)butanoyl]amino]ethoxy]ethoxy]acetyl]amino]ethoxy … (peptide)
# peptide: H[Aib]QGTFTSDLSKYLDK([γGlu-γGlu-AEEA-AEEA-γGlu-C18 diacid])RRARDFVQWLLST-NH2
# modifications: N-terminus assumed
# SMILES: CC(C)C[C@H](NC(=O)[C@H](Cc1ccc(O)cc1)NC(=O)[C@H](CCCCN)NC(=O)[C@H](CO)NC(=O)[C@H](CC(C)C)NC(=O)[C@H](CC(=O)O)NC(=O)[C@H](CO)NC(=O)[C@@H](NC(=O)[C@H](Cc1ccccc1)NC(=O)[C@@H](NC(=O)CNC(=O)[C@H](CCC(N)=O)NC(=O)C(C)(C)NC(=O)[C@@H](N)Cc1c[nH]cn1)[C@@H](C)O)[C@@H](C)O)C(=O)N[C@@H](CC(=O)O)C(=O)N[C@@H](CCCCNC(=O)CC[C@H](NC(=O)CC[C@H](NC(=O)COCCOCCNC(=O)COCCOCCNC(=O)CC[C@H](NC(=O)CCCCCCCCCCCCCCCCC(=O)O)C(=O)O)C(=O)O)C(=O)O)C(=O)N[C@@H](CCCNC(=N)N)C(=O)N[C@@H](CCCNC(=N)N)C(=O)N[C@@H](C)C(=O)N[C@@H](CCCNC(=N)N)C(=O)N[C@@H](CC(=O)O)C(=O)N[C@@H](Cc1ccccc1)C(=O)N[C@H](C(=O)N[C@@H](CCC(N)=O)C(=O)N[C@@H](Cc1c[nH]c2ccccc12)C(=O)N[C@@H](CC(C)C)C(=O)N[C@@H](CC(C)C)C(=O)N[C@@H](CO)C(=O)N[C@H](C(N)=O)[C@@H](C)O)C(C)C
# B3: N^ε29-[(4S)-4-carboxy-4-[[(4S)-4-carboxy-4-[[2-[2-[2-[[2-[2-[2-[[(4S)-4-carboxy-4-(17-carboxyheptadecanoylamino)butanoyl]amino]ethoxy]ethoxy]acetyl]amino]ethoxy … (peptide)
# peptide: H[Aib]QGTFTSDLSKYLDERRAKDFVQWLLSK([γGlu-γGlu-AEEA-AEEA-γGlu-C18 diacid])-NH2
# modifications: N-terminus assumed
# SMILES: CC(C)C[C@H](NC(=O)[C@H](CC(C)C)NC(=O)[C@H](Cc1c[nH]c2ccccc12)NC(=O)[C@H](CCC(N)=O)NC(=O)[C@@H](NC(=O)[C@H](Cc1ccccc1)NC(=O)[C@H](CC(=O)O)NC(=O)[C@H](CCCCN)NC(=O)[C@H](C)NC(=O)[C@H](CCCNC(=N)N)NC(=O)[C@H](CCCNC(=N)N)NC(=O)[C@H](CCC(=O)O)NC(=O)[C@H](CC(=O)O)NC(=O)[C@H](CC(C)C)NC(=O)[C@H](Cc1ccc(O)cc1)NC(=O)[C@H](CCCCN)NC(=O)[C@H](CO)NC(=O)[C@H](CC(C)C)NC(=O)[C@H](CC(=O)O)NC(=O)[C@H](CO)NC(=O)[C@@H](NC(=O)[C@H](Cc1ccccc1)NC(=O)[C@@H](NC(=O)CNC(=O)[C@H](CCC(N)=O)NC(=O)C(C)(C)NC(=O)[C@@H](N)Cc1c[nH]cn1)[C@@H](C)O)[C@@H](C)O)C(C)C)C(=O)N[C@@H](CO)C(=O)N[C@@H](CCCCNC(=O)CC[C@H](NC(=O)CC[C@H](NC(=O)COCCOCCNC(=O)COCCOCCNC(=O)CC[C@H](NC(=O)CCCCCCCCCCCCCCCCC(=O)O)C(=O)O)C(=O)O)C(=O)O)C(N)=O
# B4: N^ε29-[(4S)-4-carboxy-4-[[(4S)-4-carboxy-4-[[2-[2-[2-[[2-[2-[2-[[(4S)-4-carboxy-4-(17-carboxyheptadecanoylamino)butanoyl]amino]ethoxy]ethoxy]acetyl]amino]ethoxy … (peptide)
# peptide: H[Aib]QGTFTSDLSKYLDSRRARDFVQWLLSK([γGlu-γGlu-AEEA-AEEA-γGlu-C18 diacid])-NH2
# modifications: N-terminus assumed
# SMILES: CC(C)C[C@H](NC(=O)[C@H](CC(C)C)NC(=O)[C@H](Cc1c[nH]c2ccccc12)NC(=O)[C@H](CCC(N)=O)NC(=O)[C@@H](NC(=O)[C@H](Cc1ccccc1)NC(=O)[C@H](CC(=O)O)NC(=O)[C@H](CCCNC(=N)N)NC(=O)[C@H](C)NC(=O)[C@H](CCCNC(=N)N)NC(=O)[C@H](CCCNC(=N)N)NC(=O)[C@H](CO)NC(=O)[C@H](CC(=O)O)NC(=O)[C@H](CC(C)C)NC(=O)[C@H](Cc1ccc(O)cc1)NC(=O)[C@H](CCCCN)NC(=O)[C@H](CO)NC(=O)[C@H](CC(C)C)NC(=O)[C@H](CC(=O)O)NC(=O)[C@H](CO)NC(=O)[C@@H](NC(=O)[C@H](Cc1ccccc1)NC(=O)[C@@H](NC(=O)CNC(=O)[C@H](CCC(N)=O)NC(=O)C(C)(C)NC(=O)[C@@H](N)Cc1c[nH]cn1)[C@@H](C)O)[C@@H](C)O)C(C)C)C(=O)N[C@@H](CO)C(=O)N[C@@H](CCCCNC(=O)CC[C@H](NC(=O)CC[C@H](NC(=O)COCCOCCNC(=O)COCCOCCNC(=O)CC[C@H](NC(=O)CCCCCCCCCCCCCCCCC(=O)O)C(=O)O)C(=O)O)C(=O)O)C(N)=O
# B5: N^α-([Aib2,Leu10,Arg20,Leu27,Ser28]-Glucagonyl)-N{Epsilon}[(4S)-4-carboxy-4-[[(4S)-4-carboxy-4-[[2-[2-[2-[[2-[2-[2-[[(4S)-4-carboxy-4-(17-carboxyheptadecanoylam … (peptide)
# peptide: H[Aib]QGTFTSDLSKYLDSRRARDFVQWLLSTK([γGlu-γGlu-AEEA-AEEA-γGlu-C18 diacid])-NH2
# modifications: N-terminus assumed
# SMILES: CC(C)C[C@H](NC(=O)[C@H](Cc1ccc(O)cc1)NC(=O)[C@H](CCCCN)NC(=O)[C@H](CO)NC(=O)[C@H](CC(C)C)NC(=O)[C@H](CC(=O)O)NC(=O)[C@H](CO)NC(=O)[C@@H](NC(=O)[C@H](Cc1ccccc1)NC(=O)[C@@H](NC(=O)CNC(=O)[C@H](CCC(N)=O)NC(=O)C(C)(C)NC(=O)[C@@H](N)Cc1c[nH]cn1)[C@@H](C)O)[C@@H](C)O)C(=O)N[C@@H](CC(=O)O)C(=O)N[C@@H](CO)C(=O)N[C@@H](CCCNC(=N)N)C(=O)N[C@@H](CCCNC(=N)N)C(=O)N[C@@H](C)C(=O)N[C@@H](CCCNC(=N)N)C(=O)N[C@@H](CC(=O)O)C(=O)N[C@@H](Cc1ccccc1)C(=O)N[C@H](C(=O)N[C@@H](CCC(N)=O)C(=O)N[C@@H](Cc1c[nH]c2ccccc12)C(=O)N[C@@H](CC(C)C)C(=O)N[C@@H](CC(C)C)C(=O)N[C@@H](CO)C(=O)N[C@H](C(=O)N[C@@H](CCCCNC(=O)CC[C@H](NC(=O)CC[C@H](NC(=O)COCCOCCNC(=O)COCCOCCNC(=O)CC[C@H](NC(=O)CCCCCCCCCCCCCCCCC(=O)O)C(=O)O)C(=O)O)C(=O)O)C(N)=O)[C@@H](C)O)C(C)C
# How the values were obtained:
# human GLP-1 receptor = human GLP-1 receptor (human, UniProt P43220 24-463); experiment: cell-based or functional assay
# human glucagon receptor = human glucagon receptor (human, UniProt P47871 26-477); experiment: cell-based or functional assay
# human glucagon receptor, sequence (P47871 26-477): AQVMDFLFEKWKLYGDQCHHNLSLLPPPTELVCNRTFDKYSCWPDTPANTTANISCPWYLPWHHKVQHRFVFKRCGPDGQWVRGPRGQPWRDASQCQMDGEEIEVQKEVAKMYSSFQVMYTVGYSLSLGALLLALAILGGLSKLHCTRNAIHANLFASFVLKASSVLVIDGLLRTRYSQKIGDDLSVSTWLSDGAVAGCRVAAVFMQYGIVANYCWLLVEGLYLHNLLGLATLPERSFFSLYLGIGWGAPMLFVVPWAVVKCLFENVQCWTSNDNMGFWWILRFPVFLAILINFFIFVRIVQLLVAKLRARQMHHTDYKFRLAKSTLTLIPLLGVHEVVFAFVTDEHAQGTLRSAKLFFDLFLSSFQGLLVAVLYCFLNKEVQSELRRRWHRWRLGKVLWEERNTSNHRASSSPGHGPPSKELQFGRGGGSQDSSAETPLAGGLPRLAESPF
Binder,"EC50 GLP-1R, CRE luciferase reporter gene assay in BHK cells (human GLP-1 receptor)","EC50 GlucR, CRE luciferase reporter gene assay in BHK cells (human glucagon receptor)"
B1,0.015 nM,0.672 nM
B2,0.008 nM,0.054 nM
B3,0.006 nM,1.43 nM
B4,0.005 nM,0.109 nM
B5,0.02 nM,1.21 nM
